In article PMC8699916, “Synthesis of Human Bone Morphogenetic Protein-2 (hBMP-2) in E. coli Periplasmic Space: Its Characterization and Preclinical Testing” (Cells, 2021):

B1: met-hBMP-2 reference preparation from GenScript (natural protein, human)
chain: MQAKHKQRKRLKSSCKRHPLYVDFSDVGWNDWIVAPPGYHAFYCHGECPFPLADHLNSTNHAIVQTLVNSVNSKIPKACCVPTELSAISMLYLDENEKVVLKNYQDMVVEGCGCR
notes: initial methionine typical of the cytoplasmic product, told in words (met-hBMP-2); human bone morphogenetic protein-2; vendor declares dimeric form (~26 kDa); Commercial product; also called hBMP-2 GenScript; GenScript hBMP-2; source: bought: GenScript (cytoplasmic, E. coli-derived)
B2: periplasmic human bone morphogenetic protein-2 (hBMP-2 Biosintesis) (natural protein, UniProt P12643 283-396, looked up)
chain: QAKHKQRKRLKSSCKRHPLYVDFSDVGWNDWIVAPPGYHAFYCHGECPFPLADHLNSTNHAIVQTLVNSVNSKIPKACCVPTELSAISMLYLDENEKVVLKNYQDMVVEGCGCR
notes: authentic form without the initial methionine; monomer ~13 kDa, dimer ~26 kDa; also called authentic hBMP-2; our hBMP-2; source: E. coli W3110 with pλPL-DsbA-BMP-2, periplasmic fluid extracted by osmotic shock

Assays:
[1] = biological target: the molecule itself; assay: non-reducing SDS-PAGE; 15% polyacrylamide gel, non-reducing conditions, Coomassie Brilliant Blue G-250 staining; bought reference preparation
[2] = biological target: the molecule itself; assay: non-reducing SDS-PAGE with Western blot; 15% gel, non-reducing conditions, semi-dry transfer to nitrocellulose, anti-hBMP-2 rabbit IgG 1:2000; periplasmic fluid of W3110 grown at 30 °C and 42 °C

Protein | stoichiometry N [1] | stoichiometry N [2]
B1 | 2 | –
B2 | – | 2
